Measured values taken from the supplement of paper PMC9170038.

System: MS2 coat protein
Test: apparent KD of MS2 coat protein; designed switch direction (-1 OFF switch, 1 ON switch): -1; higher = weaker reporter binding
Method in brief: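 Transcription of designed RNA switches on Illumina chips was done by stalled E. coli RNA polymerase. SNAP-549-labelled MS2 coat protein was then titrated in doubling steps from 0.7 or 1.5 nM to 3 µM, with steps of 0.8–1.5 h at the lowest and 10–20 min at the highest concentration. The per-design median over clusters of curve-fitted normalised fluorescence is reported as apparent KD.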

[1] = input ligand: microRNA oligo, concentration not stated
[2] = Eterna round: R95, input ligand: microRNA oligo, concentration not stated
[3] = Eterna round: R95, input ligand: FMN 200 uM
[4] = Eterna round: R95, input ligand: none

Sequence	apparent KD of MS2 coat protein (input ligand: FMN 200 uM) [nM]	apparent KD of MS2 coat protein [1] [nM]	apparent KD of MS2 coat protein (input ligand: none) [nM]	other results
ACGAUGACCGAAAAGUGUUAACUGACAUGAGGAUCACCCAUGUAGGAUAUGGCUACGAAAAGUAGUCAGAAGGGCAUGUCAUCA [Omei Exc(NG) 3 Av8] (Eterna round: R96, puzzle: Exclusion NG 3)	27	18.7	27.3	–
GCCUUACCGGUCAGGAUAUACAUUCGUCACUCCUUGUAGAAGGGACAUGAGGAUCACCCAUGUACAUUACAUUC [alecazam41] (Eterna round: R97, puzzle: Brourd's mod of Exclusion 4)	22	–	26.1	–
CGGAUGUGAGGAUAUACAUGAGGAUCACCCAUGUGAGCCAGCUAGCUGACUGGCUCAUGUAGAAGGCACGUCUG [JL-ex3-2.15 Brourd mod] (puzzle: Exclusion 3)	–	–	–	apparent KD of MS2 coat protein [2]: 42.2 nM
GGAUCGAAUGUGAGGAUAUGCUGGUCCUUGGAUCAGCAGAAGGCACAUGAGGAUCACCCAUGUGAUACCGAUCC [Eli bmx4 4.70] (Eterna round: R97, puzzle: Brourd's mod of Exclusion 4)	255	–	381	–
AAAGAACAUGAGGAUCACCCAUGUGAGGAUAUGUAAGGAUUGUGGAGAAGAAGAGAGAACAGAAGGCACGGAGG [JR_Exclu1_Sub068] (puzzle: Exclusion 1)	–	–	–	apparent KD of MS2 coat protein [3]: 36.8 nM; apparent KD of MS2 coat protein [2]: 32.1 nM; apparent KD of MS2 coat protein [4]: 44.9 nM
GGUUGACAUGAGGAUCACCCAUGUGAGGAUAUGCGAGAGAAAAAAGUGAGGAAGAAGAGCAGAAGGCGCUGUCG [salish99-ex1_r3_012] (puzzle: Exclusion 1)	–	–	–	apparent KD of MS2 coat protein [3]: 99.4 nM; apparent KD of MS2 coat protein [2]: 134 nM; apparent KD of MS2 coat protein [4]: 117 nM
GUAGGUUAAGUAAGGAUAUACCUCUGGAAACAGAGGUAGAAGGUACAUGAGGAUCACCCAUGUUUCUCUUUUGC [Mod of Eli 6 - Jieux - Brourd's mod of Exclusion 4] (Eterna round: R97, puzzle: Brourd's mod of Exclusion 4)	21.8	–	18.7	–
GCAGCUAAUGCAGGAUAUCAGCACGUUUAGUGCUGAGAAGGGCACAUGAGGAUCACCCAUGUGAUCAAUUAAUAUUAAUGCUGC [ENG1/11-B2] (Eterna round: R96, puzzle: Exclusion NG 1)	152	23.1	31	–
ACCAUAGAUGUAGGAUAUCCAUGAAGAUAACAAGGAGAAGGACAUGAGGAUCACCCAUGUAAGUAUUAUGAAUGUAGCGACAGC [Meechl Ex NG1] (Eterna round: R96, puzzle: Exclusion NG 1)	82.1	34	59.5	–
UCGAGGUCAGGAUAUACAUGAGGAUCACCCAUGUUGAGAUAAGGUAGGAAAAGAGUAGGUAGAAGGGACGAGAG [JR_Exclu3_Sub047] (puzzle: Exclusion 3)	–	–	–	apparent KD of MS2 coat protein [2]: 27.3 nM
AAGAUGCGGGUAGGAUAUGGGAAUUAAUAAAGACCAGAAGGACUGGUCACACAACAUGAGGAUCACCCAUGUGUGUGUAGUGAA [exng1 ex1] (Eterna round: R96, puzzle: Exclusion NG 1)	–	9.2	–	–
AGUUUUAAUGAGGAUAUCGUAUUGGAUAUAGUGCGAGAAGGCAUUACAUGAGGAUCACCCAUGUUUUGUUGGGA [JR_Ex6_Sub008] (Eterna round: R97, puzzle: Exclusion 6)	58.1	–	24.5	–
UUCGGCGCAGGAUAUACAGUUCUGUGUUGAAUCGGCGCGGGACAUGAGGAUCACCCAUGUAGAAGGGUGUUGGG [-26.9, -23.2 kcal, A 22%] (Eterna round: R97, puzzle: Exclusion 2)	220	–	538	–
UAUAUAUAGUAAGGAUAUGUAUAUAUUUUAUAAACAGAAGGUACUGACAUGAGGAUCACCCAUGUUUUAGUGUGGGCAUGUAGA [JMF's solution 7] (Eterna round: R96, puzzle: Exclusion NG 1)	–	57.5	–	–
